Legend:
HLA-C*14:02 = assay: IEDB peptide-MHC binding, purified MHC/direct/fluorescence; filed as Kd, often an IC50 or EC50 that approximates it; ≥ and ≤ were set here for values at or beyond the usual limits of such assays; details: source organism: Human immunodeficiency virus 1
HLA-A*24:02 = assay: IEDB peptide-MHC binding, purified MHC/competitive/fluorescence; ≥ and ≤ were set here for values at or beyond the usual limits of such assays
HLA-B*08:01 = assay: as above
HLA-A*02:01 [1] = assay: as above
HLA-B*07:02 [2] = assay: as above
HLA-A*31:01 = assay: IEDB peptide-MHC binding, purified MHC/direct/fluorescence; filed as Kd, often an IC50 or EC50 that approximates it; ≥ and ≤ were set here for values at or beyond the usual limits of such assays
HLA-B*58:01 = assay: as above; details: source organism: West Nile virus
HLA-B*40:01 = assay: as above; details: source organism: West Nile virus
HLA-C*12:03 = assay: as above
HLA-A*11:01 = assay: as above
HLA-B*18:01 = assay: as above
HLA-B*46:01 = assay: as above
HLA-B*44:02 = assay: as above
HLA-B*48:01 = assay: as above; details: source organism: West Nile virus
HLA-B*15:09 = assay: as above; details: source organism: West Nile virus strain PTRoxo
HLA-C*05:01 = assay: as above
HLA-B*27:05 = assay: as above
HLA-B*57:01 = assay: as above
HLA-A*03:01 [3] = assay: as above
HLA-B*07:02 [4] = assay: as above; details: source organism: West Nile virus
HLA-B*15:01 [5] = assay: as above
HLA-B*15:01 [6] = assay: IEDB peptide-MHC binding, purified MHC/competitive/fluorescence; ≥ and ≤ were set here for values at or beyond the usual limits of such assays
HLA-C*03:03 = assay: IEDB peptide-MHC binding, purified MHC/direct/fluorescence; filed as Kd, often an IC50 or EC50 that approximates it; ≥ and ≤ were set here for values at or beyond the usual limits of such assays
HLA-B*51:01 = assay: as above
HLA-A*29:02 = assay: as above; details: source organism: Yellow fever virus 1899/81
HLA-A*01:01 [7] = assay: as above; details: source organism: Yellow fever virus 1899/81
HLA-A*69:01 [8] = assay: as above; details: source organism: Yellow fever virus 1899/81
HLA-A*03:01 [9] = assay: IEDB peptide-MHC binding, purified MHC/competitive/fluorescence; ≥ and ≤ were set here for values at or beyond the usual limits of such assays; details: source organism: Vaccinia virus WR
HLA-A*02:16 = assay: IEDB peptide-MHC binding, purified MHC/competitive/fluorescence; filed as Kd, often an IC50 or EC50 that approximates it; ≥ and ≤ were set here for values at or beyond the usual limits of such assays; details: source organism: Human immunodeficiency virus 1
HLA-A*02:06 = assay: as above; details: source organism: Human immunodeficiency virus 1
HLA-A*02:11 = assay: as above; details: source organism: Human immunodeficiency virus 1
HLA-A*02:19 = assay: as above; details: source organism: Human immunodeficiency virus 1
HLA-A*02:03 = assay: as above; details: source organism: Human immunodeficiency virus 1
HLA-A*69:01 [10] = assay: as above; details: source organism: Human immunodeficiency virus 1
HLA-A*02:12 = assay: as above; details: source organism: Human immunodeficiency virus 1
HLA-A*02:01 [11] = assay: as above
HLA-A*01:01 [12] = assay: as above; details: source organism: Influenza A virus (A/Harbin/1/1988(H1N2))
[13] = source organism: Zaire ebolavirus
[14] = source organism: West Nile virus
[15] = source organism: dengue virus type 4
[16] = source organism: Vaccinia virus Copenhagen
[17] = source organism: Yellow fever virus 1899/81
[18] = source organism: Vaccinia virus WR
[19] = source organism: Influenza A virus (A/Hong Kong/532/1997(H5N1))

For AFHHVAREL, the Kd (HLA-C*14:02) was at most 0.001 µM.
ARKHHTKID gave an IC50 (HLA-A*24:02; source organism: Variola virus) of 0.025 µM and an IC50 (HLA-B*08:01; source organism: Variola virus) of 41.7 µM.
Work on FPQLSAIAL yielded an IC50 (HLA-A*24:02; [13]) of 17.8 µM, an IC50 (HLA-B*08:01; [13]) of at least 129 µM and an IC50 (HLA-A*02:01 [1]; [13]) of at least 179 µM. It also gave an IC50 (HLA-B*07:02 [2]; [13]) of 13.6 µM.
In the case of FVDVGVSAL, the Kd (HLA-A*31:01; [14]) is reported as at least 20 µM, the Kd (HLA-B*58:01) is reported as at least 20 µM and the Kd (HLA-B*40:01) is reported as at least 20 µM. It also gave a Kd (HLA-C*12:03; [14]) of at least 20 µM, a Kd (HLA-A*11:01; [14]) of at least 20 µM and a Kd (HLA-B*18:01; [14]) of at least 20 µM. For the same sequence, the Kd (HLA-B*46:01; [14]) was at least 20 µM, the Kd (HLA-B*44:02; [14]) was at least 20 µM and the Kd (HLA-B*48:01) was at least 20 µM. The Kd (HLA-B*15:09) was 2.2 µM, the Kd (HLA-C*05:01; [14]) was at most 0.001 µM and the Kd (HLA-B*27:05; [14]) was at least 20 µM. For the same sequence, the Kd (HLA-B*57:01; [14]) was at least 20 µM, the Kd (HLA-A*03:01 [3]; [14]) was at least 20 µM and the Kd (HLA-B*07:02 [4]) was at least 20 µM. It also gave a Kd (HLA-B*15:01 [5]; [14]) of at least 20 µM.
IFRLMRTNF was tested, and the IC50 (HLA-A*24:02; [13]) was 0.0398 µM, the IC50 (HLA-B*08:01; [13]) was 55.2 µM and the IC50 (HLA-B*07:02 [2]; [13]) was 9.03 µM. For the same sequence, the IC50 (HLA-B*15:01 [6]; [13]) was 2.18 µM.
With ILRNPGFAL the Kd (HLA-C*03:03; [15]) was 0.211 µM and the Kd (HLA-B*51:01; [15]) was at least 20 µM.
Work on LAKAIITPI yielded an IC50 (HLA-A*24:02; [16]) of 6.28 µM, an IC50 (HLA-B*08:01; [16]) of at least 138 µM and an IC50 (HLA-A*02:01 [1]; [16]) of 13.7 µM. The IC50 (HLA-B*07:02 [2]; [16]) was 56.1 µM and the IC50 (HLA-B*15:01 [6]; [16]) was 24.5 µM.
LANYAFFAI was tested, and the Kd (HLA-C*03:03; source organism: Streptococcus pneumoniae R6) was at most 0.001 µM and the Kd (HLA-B*51:01; source organism: Streptococcus pneumoniae) was 0.23 µM.
RADEINAIL was tested, and the Kd (HLA-A*31:01; [17]) was at least 20 µM, the Kd (HLA-A*29:02) was at least 20 µM and the Kd (HLA-A*01:01 [7]) was at least 20 µM. The Kd (HLA-A*11:01; [17]) was at least 20 µM, the Kd (HLA-B*18:01; [17]) was at least 20 µM and the Kd (HLA-B*46:01; [17]) was at least 20 µM. For the same sequence, the Kd (HLA-B*44:02; [17]) was at least 20 µM, the Kd (HLA-C*05:01; [17]) was at most 0.001 µM and the Kd (HLA-B*27:05; [17]) was at least 20 µM. It also gave a Kd (HLA-A*69:01 [8]) of at least 20 µM, a Kd (HLA-B*57:01; [17]) of at least 20 µM and a Kd (HLA-A*03:01 [3]; [17]) of at least 20 µM. For the same sequence, the Kd (HLA-B*15:01 [5]; [17]) was at least 20 µM.
RLPKRSVML showed an IC50 (HLA-A*24:02; [18]) of 0.0521 µM, an IC50 (HLA-B*08:01; [18]) of 15.2 µM and an IC50 (HLA-A*02:01 [1]; [18]) of 2.65 µM. For the same sequence, the IC50 (HLA-A*03:01 [9]) was 34.1 µM, the IC50 (HLA-B*07:02 [2]; [18]) was 7.67 µM and the IC50 (HLA-B*15:01 [6]; [18]) was 12.7 µM.
For SLADQLIHL, the Kd (HLA-A*02:16) was 0.0006 µM, the Kd (HLA-A*02:06) was at most 0.0001 µM and the Kd (HLA-A*02:11) was 0.000145 µM. It also gave a Kd (HLA-A*02:19) of 0.00467 µM, a Kd (HLA-A*02:03) of 0.00086 µM and a Kd (HLA-A*69:01 [10]) of 0.277 µM. For the same sequence, the Kd (HLA-A*02:12) was 0.00285 µM and the Kd (HLA-A*02:01 [11]; source organism: Human immunodeficiency virus 1) was 0.0425 µM.
Sequence SQAPLPCVL has a Kd (HLA-C*12:03; source organism: human gammaherpesvirus 4) of 0.554 µM.
YLMAWKQVL was tested, and the Kd (HLA-C*12:03; [19]) was 0.022 µM and the Kd (HLA-A*02:01 [11]; [19]) was 0.0004 µM.
Work on YVSVVSSHY yielded a Kd (HLA-A*01:01 [12]) of 0.549 µM.
